Columns and labels:
[1] = molecular target: HLA-A*02:06 molecule (product of HLA-A*02:06 gene) on RA2.6 cells (human); assay: flow cytometry, RA2.6 cells, peptide dilution series, BB7.2 staining
[2] = molecular target: HLA-A*02:01 molecule (product of HLA-A*02:01 gene) on T2 cells (human); assay: flow cytometry, T2 cells with added b2m, peptide dilution series, BB7.2 staining
[3] = molecular target: HLA-A*24:02 molecule (product of HLA-A*24:02 gene) on C1R-A24 cells (human); assay: flow cytometry, acid-stripped C1R-A24 cells with added b2m, peptide dilution series, 17A12 staining

With SLTPQAFEF (modifications not checked) [GPC3-derived peptide … (SEQ ID NO: 5)] the Binding Experiment Data (log Kd) (log Kd (concentration unit not given)) [1] was -4.52, the Binding Experiment Data (log Kd) (log Kd (concentration unit not given)) [2] was -4.93 and the Binding Experiment Data (log Kd) (log Kd (concentration unit not given)) [3] was -7.11.

Source: patent publication US20190062389A1
